Reference: a protein production outcome set (Wang et al. 2014)

Experiment: label from the status in PepcDB records

Sequence | protein production
MDNTRSVYGIDLGTTYSCIAQVDKFDQAIVLRNFEGDATTPSAVYFEDMDHVVVGKEAKGMLATEPTKTAVFIKRHIGVDDSFDKNTNEFPYHYDPTEISAFILKKLVKDANDLGDNPEPIKDVVITCPAYFGTKERMQTKQAGEIAGLNVLSIINEPTAAAISYGVKTDQKKTVLVYDLGGGTFDVTLINVNGGAIKVIATGGDHHLGGVDWDTALAEYMLAAFNEQNNTSYSFEDRLDLKYELLLLAEDKKKVLTAKQTAKATYQYEGNSARIEISRELFNSLTERKLDETIDATKKVIAIAKEKGYNNIDEILLVGGSSRMPQIKERVDKEFNCDAKLTDPDECVAKGAAIYAMNAAYSQAVRDYEEGESDDKPAPLRGDRTTVVNVTSKTYGTDVIIEGQSMVQNLIFANSSLPTKRIETFTTSIPNQRGVSVKVFESDFTNMETESIVEERFCTLIDDHTLKLSKDWPQGTQISVTYQIDQEGILHGLAYVENDKLEFDLKITGVKCEEELRKSKAIIDKASVE | failed
MASQQEKKQLDERAKKGETVVPGGTGGKSFEAQQHLAEGRSRGGQTRKEQLGTEGYQQMGRKGGLSTGDKPGGEHAEEEGVEIDESKFRTKT | failed
MRQHWRMRHLALACFLLAPGAALASDCPTAPDHSERIAHLIEDIRAAPNEMQARTISNRMWEIWADAPDEAAQAILDNGMSRRRAWDLLGALSEFDRLVAYCPDYAEGYNQRAFANFLRQDFAAALIDLDRALALSPNHVAAMSGRALTLMGLGRIDEARSVLNQALELNPWLPERGLVAPGGPLEPKGKDI | failed
MSPIHVRAHPGDVAERVLLPGDPGRAEWIAKTFLQNPRRYNDHRGLWGYTGLYKGVPVSVQTTGMGTPSAAIVVEELVRLGARVLVRVGTAGAASSDLAPGELIVAQGAVPLDGTTRQYLEGRPYAPVPDPEVFRALWRRAEALGYPHRVGLVASEDAFYATTPEEARAWARYGVLAFEMEASALFLLGRMRGVRTGAILAVSNRIGDPELAPPEVLQEGVRRMVEVALEAVLEV | not failed
MIRIDSVTKRYPDGTVAVDRLSLEIPDRSITVLVGPSGCGKTTTLRMINRMVEPSEGTILLDGADITKQPVNTLRRSMGYVIQNAGLFQHRTIVDNIATVPRMLGWGKERARSRARELMERVGLDASLARRYPYQLSGGQQQRVGVARALASDPPVLLMDEPFSAVDPVVRKGLQEELLRIQDELGKTIVFVTHDIDEAIRLGTMVAVMRTGGHLAQFAPPAELLSAPADAFVEDFLGTDRGIRRLSFFPSAGLELLTTPVVAIDSTAEQIAARGTPDVPYLLVTDVDGKALGWSEPKDLTAGKVVPERLLPYGRPFESGKDSLRAALDCAVLSPTGWAVAVDGTGRVVGVVSQETIGEAIRGAHAERRKADLAGLEHHHHHH | not failed
MVVSIITPLYKVEDFIARCADSLFRQSYTEIEYIFVDDCSSDRSVEVLLQVAERYPQLQQQIRILHHESNRGVAAARETGLAAATGEYVYWVDADDWIEPDAIEKMVVRSEQGQKDIIACGWYLCFRQNERRMPMPCYADAETALRGMLSGTMRWNLWLYMIKRDLYLMNDIHFMEGENVGEDMLVLIKLFSHAKSIGFVKDAFYHYVKQNENSLTRLSPEQQMKRQMRNLQAATDYLVTHFIGKYEKEINFFKLNAKMPLLISNDKNSYRTWTACFPEANKYIMANKRQTLRMRLVQLMAAKRQFWLVELYYQLVFKFVYGILYK | failed
LHDTDQQGMFERGSAIVEPRFRSLLQQIGSMLGEIDNRLLVVGHTDAAQYHRAGGFAAMSNWSLSSNRAMAARLHMMQGGLAADSVLQVVGMAERAPLDKQHPLGAVNRRIELLVLTSGQAQA | failed
MANGPGCACPRCGAPRASGPECPRCGVIYAKARARAAPSPAPSGPGTSLPDPGAAGLALGMPARARWSGELDGARRELWIRAVAPPAALLLALALVSSGPGHALLRTFLSMWIHELGHAVTAWLCGHGAFPGPWRTPISSGRLPLVVIAVSGALAALAWRGWRSGRRAILAAGAAGLGVQLVCTLLPATTARALITFGGDAGCMVIGAALVATIWADPEGPLGRGSLRWGFLVIGAAALVDALHGWVRAWRDPGELPLGEIEGVGLSDASTLMQVHRWSASALSGRYVALGLACLAALGATYAVMLARARGAVAAERRAA | failed
MFKELHPNIRARILIQFLSKIIGSMIFPFMAIYFSMEINSKVAGILLMINVLAQFLAGMYGGHLADIIGRKKLMVAGELLKVFAFLGMVLCNSPVFHSPWITFVMLLLIGVAQGLINPAGEAMLIDVSTPENRSFMYSVSYWANNLSMMIGIIVGGWFFIDYLFPLLVALFIMSFVTAWLTISLISETLKQKAVLKKGSYGLVGMLKNYGQVLHDCRFLLYTLGGIAVMSIEFQRSNYISVRLAEDFQALLVHFGPLGNITLNGVQIVSVLTAVNTLFIVLFTVPVARFVTKRAQQPIMYVGFTLFAIGFAVCAFANNLAVLLLATAVLSIGELLYVPTRQTILAAIVDDNRRGAYMAFNGIIFQIGKMIGSVSLVFAPFIGKYGMATFTILLGVLSIVFSAAALKSGWKKVLAK | failed
MEYYFTAQKLAVGYDNRPLIENIDFSLKRGEILTLIGPNGAGKSTILKSIARQLSLVSGTIYLDKSDVVTMNGNEFAKKMAVVLTDKLKTELMTCYDVVATGRYPYTGRFGVLSDEDKKAVDEAMELVNVSQIKDKDFTKISDGQRQRVMLSRAICQQPEIIVLDEPTSYLDIKYKLEFLSILQRLKRQKNLTVIMSLHELDMAKRVSDHILCIDGRYVDRYGTPEEVFTDQYVSGLFGITAGSFDETGEDLELEKPDGSARIFVIAGGGLGRKSFRSLQRKGIPFATGIIYENDLDYPAAKALSAEIVSARSFEPVDDALIEKAKELIDACEGVICDRTEFGTYEQFNSRLYEYAVSTGKIIKIPFLEEQLAQL | failed
MPFLLTLLAFLRVLRRLLKDEKFRALLYITAFTLAIGTFFYHSVEGWDWLDSLYFSVITLTTVGYGDFTPKTNIGKFFTIIYIFIGLGILVAFVTPIGEYIVDRRLDRIQEREQKKEIPENEFDFSGVIGKLRGKK | failed
MSIFNKDALSSFFGLSGEEDDYYDNYEEYEERKAVNEPPRRAARPKPQRPVQQQESYSQPAYTQQSEPVVEKPSARYRSAEAHQERDTQQAAYTEKKVVSMRSSNQSATTNTRRAQESTANAKTHKITIIEPRVYSEAMSIAKHLFAEEAVLVNFTLVEEDQARRIVDFLTGTVYALDGDIQRVGNEIFLCTPANMEIDSATAQSLANKQFFDFLEHHHHHH | failed
MATPTEHEDLSEQEVTEDEFKTPKIRETPEDIKLEAIVNTIAFHPKQDILAAGDIDGDIYLFSYSCTEGENKELWSSGHHLKSCRKVLFSSDGQKLFSVSKDKAIHIMDVEAGKLETRIPKAHKVPINAMLLIDENIFATGDDEGTLKVWDMRKGTSFMDLKHHEDYISDITIDQAKRTLLTSSGDGTLGVFNIKRRRFELLSEIQNGDLTSVSIMKRGRKVVCGSGEGTIYIFNWNGFGATSDRFAVQAESVDCIVPITDSILCAASTDGVIRAINILPNRVVGSIGQHVGEAIEEIARCRDTHFLASCAHDELIKFWDISSLPDEKVNDYRRRKKKDRRLKALSNKAFDTGQNFFAGLLDTTEENGKEGENDEDDDDEDSDSGSD | not failed
MPKPHETAVYTHGHHESVLRSHTWRTAENSAAYLLGSLRPHMRILDIGCGPGTITADLAERVPEGHVTGVDRSPEIVERARATAAARGLENTGFAVADVHALDYPDDTFCVVHAHQVLQHVGDPVRALREMRRVARPGGFIAVRDSDYGAMTWYPASSGMDDWLDLYHRVARANGGEPDAGRRLKAWALEAGFTDITATSATWTFTTPEEREWWSGLWADRTLASAYAERATEGGHATPERLRAVSAAWRDWGKHPESWFSVLHGEILCRKEA | failed
MSAIRSRRSLLIPVLIVALLHVYIGVRLLPGLPVPMIVHSLAVLWLIASTLLMPAALMARRLSTPWADQLSWVGMMAMGFFSSLLVLTIARDLFLLVTLAIGWRPPGLTGYSALGAIALALAVTVIGFFQARGLAKVKEVDVPIANLPDALHGFTIAQISDIHVGPTIKRPYIDRIVDRVNSLAPDAIAITGDLVDGSVRELSAHTAPFARLSARHGAYVVTGNHEYYSGAEAWIVELRRLGLRVLMNEHVVVERGDASLVLGGVTDFTAGGFIESHRSDPVQALDGAPRDAAARVLLAHQPRTAPAAAAAGFDLQLSGHTHGGQFWPWNLFVPMQQPYVHGLNRHDNLWVYVSRGTGYWGPPKRFGAPSEITLVRLVRG | failed
MRKNDIADISPRDPMLALVLLTRLPLPALPEAAFARQAAAVWAFPLAGLAVGALAWATGALALAAGLAPVAVAGLMLVVLVMTTGGMHEDGLADTADGLWGGFTPERRLEIMKDSHIGTYGVLALILSQGLRLAALSALVAGGALGAAVAAAVWSRALMPVLMAALPNARGTGLSQSVGRPTPQAVTLGLGLAAVLALLLAGWAVLIPALLAVLSVLGLAALARAKIGGQTGDILGAAQQLAEITCLLALSAAL | failed
MNKRRNHKTNKAKDSLSDEETKHDVLAQEVEGGDSSSDEDDVNIVLEPSSTYYGGDTSTGDSKGLFVGGTTTRHWQRPGYSSTAEGGIVGSGVSAYSRGGVDLSLVPKPPTDFPGAHVDYSVFENEIDSLEEKPWREKGAELSDYFNYGFTEDTWREYCRRQQMMRLYSQSLMPIRTLDSGGPLHNIDSPNEPSRKVPRGQQNRRLTPAYSTLRNNFDSKFYSDGNESFSSDYVRYSRPEQTDGDDVILTLTKPTSVDES | failed
MSLRILIVDDEKLTRDGLIANINWKALSFDQIDQADDGINAIQIALKHPPNVLLTDVRMPRMDGIELVDNILKLYPDCSVIFMSGYSDKEYLKAAIKFRAIRYVEKPIDPSEIMDALKQSIQTVLQHQAQQDSEGHHHHHH | not failed
MAWNKQVALVFLPSDSGVDGARSLYGDTEPPGLRRWLDSGVRNLIKRTQFAIPPLALMILASIEVPGVEQTLCDLRFEEFPFDRQWDLVGISVQTGMASKAFELADRLRSRGVKVVLGGPHVTMFPDSCRAHADCLVHGEADDLWRDVLADLVTDSLKAEYRPDAPPDLQLHRPVSRASLKKNRYFTTNLVQTGRGCPYQCDFCNVHVLNGRVLRQRKIDHIVDEVRRFSEEDKRIFFFVDDSINGDPLFARELFKHLIPLNITWFGQATTALGQQPELLDTFARSGCRALLVGIESIEPSSRIAHKKTQNRTDELAGNIRAIRKSGISLYGSFIYGLDGDTLQTPQAILDFIADTRLDVPGINTLRPIPGTKVFDRLREEGRLLFDPEDITSFRYTFGQEMLYRPKNIPLPEFIESYSELTRKVFNIGNAIRRGLEAPGINAAVLFFNLFYTHLYRLSRNDLRKQLETLGSA | failed
MKEALKKYNLPIVFVITYVFGCVFAMLCQNTAGEVIMNLLIFALIVLVIYAIIFNYVMYSKMSFGQNFLYILFSSIIYIFGLIFVMILSAVIGDSINNSNDDFGFLLMMFGTSFTMGIFFAYLIPIVPSAIVKLLCGHEKK | failed
MAPSHDRGRVDRALARVSHAFSILIAALTFALPGVATAGDVPTFAVDPAWPKPLPNNWILGQVGGITVDWQGHIWVIHRPRSLTDDEKGASLNPPRSKCCVSAPPVLEFDTDGNLLRSWGGLGEGYEWVGREHGIEVDERGFVWVGGNADNDNAILKFTLDGKFVAQIGKIAPSLGSNDTTQLGKPAETAIDKAANEIYVADGYGNRRVIVFDATTLAYKRHWGAYGNKPNDDKQGPYDPKAPVAQQFGNPVHCVKLANDGLVYVCDRINNRIQVFRKDGTFVKEFFFEKNTLGNGAVWDIAIWPDPKQTWLLSADGENNEIRVIRRDDGSVVGSFGRNGRNAGQFHWVHAMAIDAKGNVYTAEVDTGKRIQKFKLTSDALK | failed
MKVFVIGAGLMGRGIAIAIASKHEVVLQDVSEKALEAAREQIPEELLSKIEFTTTLEKVKDCDIVMEAVFEDLNTKVEVLREVERLTNAPLCSNTSVISVDDIAERLDSPSRFLGVHWMNPPHVMPLVEIVISRFTDSKTVAFVEGFLRELGKEVVVCKGQSLVNRFNAAVLSEASRMIEEGVRAEDVDRVWKHHLGLLYTLFGPLGNLDYIGLDVAYYASLYLYKRFGDEKFKPPEWLQEKIKKGEVGVKAGKGIYEYGPKAYEERVERLKKLLRFLGLE | not failed
